Where a chain is given by its changes, count along the chain named. Where two headings read alike, the source gives them in different places.
B1: 37E1 single-chain antibody fragment (scFv) on yeast (scFv, V domains shown)
VH: EVQLVESGGGLVQPGGSLNLSCAASGFVFSRYWMSWVRQAPGKGLEWIGEINPDSSTINYTSSLKDKFIISRDNAKNTLYLQMNKVRSEDTALYYCACLITTEDYWGQGTSVTVSS
VL: QIVLTQSPSSMYASLGERVTIPCKASQDINSYLSWFQQKPGKSPKTLIYRANRLVDGVPSRFSGSGSGQDYSLTISSLEYEDMGIYYCLQYDEFPYTFGGGTKLEIK
B2: B5 intact IgG (antibody, V domains shown)
VH: B1 VH with A24V
VL: B1 VL with R50Y
B3: B5 single-chain antibody fragment (scFv) on yeast (scFv, V domains shown)
VH: B1 VH with A24V
VL: B1 VL with R50Y

What was measured:
[1] = target: integrin αvβ8 on β8-expressing HT1080 cells (wild-type β8) (human (endogenous in HT1080) | human) (UniProt P06756); test: flow cytometry on cells
Chain of integrin αvβ8 on β8-expressing HT1080 cells (wild-type β8) (human (endogenous in HT1080) | human) (P06756 31-1048, chain 1 of 2): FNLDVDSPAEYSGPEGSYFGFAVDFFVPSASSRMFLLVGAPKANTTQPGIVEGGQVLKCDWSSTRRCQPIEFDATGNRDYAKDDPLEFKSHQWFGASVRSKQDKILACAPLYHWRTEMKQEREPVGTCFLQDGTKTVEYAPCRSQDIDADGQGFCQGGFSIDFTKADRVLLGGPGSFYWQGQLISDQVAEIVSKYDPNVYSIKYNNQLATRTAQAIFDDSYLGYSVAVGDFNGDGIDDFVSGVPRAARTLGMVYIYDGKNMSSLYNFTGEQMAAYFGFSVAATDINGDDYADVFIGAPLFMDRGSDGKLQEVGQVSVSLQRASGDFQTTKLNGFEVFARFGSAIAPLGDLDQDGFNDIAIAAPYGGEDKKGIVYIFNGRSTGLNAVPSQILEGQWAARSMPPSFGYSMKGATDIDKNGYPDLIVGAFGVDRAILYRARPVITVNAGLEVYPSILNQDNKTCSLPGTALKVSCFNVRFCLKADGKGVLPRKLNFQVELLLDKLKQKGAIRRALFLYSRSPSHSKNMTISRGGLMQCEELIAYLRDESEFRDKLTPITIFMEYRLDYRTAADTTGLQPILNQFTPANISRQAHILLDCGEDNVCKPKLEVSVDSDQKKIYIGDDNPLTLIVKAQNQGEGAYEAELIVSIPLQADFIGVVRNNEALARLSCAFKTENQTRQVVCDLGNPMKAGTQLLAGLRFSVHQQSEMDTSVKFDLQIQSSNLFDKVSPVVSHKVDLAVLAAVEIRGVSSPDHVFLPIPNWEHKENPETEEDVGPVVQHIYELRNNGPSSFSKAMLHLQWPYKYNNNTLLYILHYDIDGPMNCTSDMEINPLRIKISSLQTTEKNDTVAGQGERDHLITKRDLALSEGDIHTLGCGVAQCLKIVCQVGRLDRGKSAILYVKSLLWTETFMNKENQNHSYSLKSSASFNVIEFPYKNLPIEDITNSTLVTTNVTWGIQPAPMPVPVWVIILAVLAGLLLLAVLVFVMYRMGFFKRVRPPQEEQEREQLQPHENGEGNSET
Chain of integrin αvβ8 on β8-expressing HT1080 cells (wild-type β8) (human (endogenous in HT1080) | human) (P26012 43-769, chain 2 of 2, further chain): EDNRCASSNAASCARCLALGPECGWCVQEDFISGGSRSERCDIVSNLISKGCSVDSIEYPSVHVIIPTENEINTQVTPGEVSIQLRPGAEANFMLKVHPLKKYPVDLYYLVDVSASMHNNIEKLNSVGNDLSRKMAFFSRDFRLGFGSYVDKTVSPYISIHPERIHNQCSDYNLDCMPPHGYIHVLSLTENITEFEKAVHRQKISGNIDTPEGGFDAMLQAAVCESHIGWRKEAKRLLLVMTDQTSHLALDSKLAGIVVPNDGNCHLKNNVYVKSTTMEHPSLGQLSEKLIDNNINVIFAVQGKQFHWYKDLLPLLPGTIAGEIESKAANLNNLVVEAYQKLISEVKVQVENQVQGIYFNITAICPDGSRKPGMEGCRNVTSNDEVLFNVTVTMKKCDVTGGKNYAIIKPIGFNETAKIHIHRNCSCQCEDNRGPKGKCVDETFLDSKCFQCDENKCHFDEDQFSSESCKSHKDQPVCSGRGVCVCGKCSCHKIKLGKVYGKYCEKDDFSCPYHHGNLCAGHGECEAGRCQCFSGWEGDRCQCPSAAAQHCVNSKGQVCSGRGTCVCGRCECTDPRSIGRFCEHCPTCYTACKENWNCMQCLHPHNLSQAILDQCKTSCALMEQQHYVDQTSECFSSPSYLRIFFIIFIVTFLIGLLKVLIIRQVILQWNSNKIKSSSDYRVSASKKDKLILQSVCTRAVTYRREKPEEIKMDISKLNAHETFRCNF

[2] = target: T1, integrin αvβ8 (construct of the affinity and cross-competition measurements, not told) (Homo sapiens, UniProt P06756;P26012); test: flow cytometry on cells
T1 sequence (P06756 31-1048, chain 1 of 2): as the sequence (P06756 31-1048, chain 1 of 2) above
T1 sequence (P26012 43-769, chain 2 of 2): as the sequence (P26012 43-769, chain 2 of 2, further chain) above

[3] = target: T1, integrin αvβ8 (construct of the …)

| Molecule | Kd [2] [nM] | further results |
| --- | --- | --- |
| latency-associated peptide (from UniProt P01137 30-278) (ligand) |  | percent decrease of B5 binding to β8-expressing HT1080 cells [1]: 29% |
| B1 | 118 |  |
| B2 |  | Kd [3]: 0.54 nM |
| B3 | 15.4 |  |

— publication PMC4341974 (Science translational medicine, 2014)
